Assay results: patent publication US20210113690A1 (BERLIN CHEMIE, published 2021)

Assays:
LY75 1029-1040 = biological target: T1, LY75 1029-1040 (human); test: peptide microarray; region identified by signal above the cut off
T1 construct: Region put together from overlapping 8mers on the array
T1 peptide: RELTYSNFHPLL
Method: (§1) The peptide microarray analysis was performed by LC Sciences, Houston Tex., in brief the method comprised the following steps: —Contiguous 8mer peptides of LY75 protein having […] spanning residues 216 to 1666 of the full length LY75 protein were synthesized and immobilized on a microarray chip. The chip comprised three panels such that the experiment was performed in triplicate. […] The binding assay was performed under the following conditions:—
(§2) The microarray comprising the contiguous peptides in triplicate was washed with 1 mL of binding buffer at 4° C. for 20 min. […] The array was again washed with 0.5 mL of washing buffer at 4° C. for 30 min then incubated with 25 ng/mL anti-human IgG Alexa 647 conjugate in binding buffer (pH 7.0) at 4° C. for 1 hr. The array was again washed with 0.5 mL of washing buffer at 4° C. for 30 min.

LY75 761-780 = biological target: T2, LY75 761-780 (human); test: as above
T2 construct: Region put together from overlapping 8mers on the array; also called Region 3 (aa761-780)
T2 peptide: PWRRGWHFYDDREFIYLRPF
Method: as §1, §2

LY75 1107-1118 = biological target: T3, LY75 1107-1118 (human); test: as above
T3 construct: Region put together from overlapping 8mers on the array
T3 peptide: TVKYLNNLYKII
Method: as §1, §2

LY75 883-901 = biological target: T4, LY75 883-901 (human); test: as above
T4 construct: Region put together from overlapping 8mers on the array
T4 peptide: DDHFTYSRYPWHRFPVTFG
Method: as §1, §2

EVKDCRSF = biological target: T5, EVKDCRSF; test: peptide microarray, 8mer on the chip, 1 µg/mL LY75_A1, anti-human IgG Alexa 647
T5 construct: LY75 8mer on the microarray
T5 peptide: EVKDCRSF
Method: as §1, §2

FVSLCQKY = biological target: T6, FVSLCQKY; test: as above
T6 construct: LY75 8mer on the microarray
T6 peptide: FVSLCQKY
Method: as §1, §2

SCSERHFV = biological target: T7, SCSERHFV; test: as above
T7 construct: LY75 8mer on the microarray
T7 peptide: SCSERHFV
Method: as §1, §2

YSRYPWHR = biological target: T8, YSRYPWHR; test: as above
T8 construct: LY75 8mer on the microarray
T8 peptide: YSRYPWHR
Method: as §1, §2

SLSCYKVF = biological target: T9, SLSCYKVF; test: as above
T9 construct: LY75 8mer on the microarray
T9 peptide: SLSCYKVF
Method: as §1, §2

DHFTYSRY = biological target: T10, DHFTYSRY; test: as above
T10 construct: LY75 8mer on the microarray
T10 peptide: DHFTYSRY
Method: as §1, §2

DREFIYLR = biological target: T11, DREFIYLR; test: as above
T11 construct: LY75 8mer on the microarray; aa 771-778 counted from Region 3 (aa761-780)
T11 peptide: DREFIYLR
Method: as §1, §2

TSCSERHF = biological target: T12, TSCSERHF; test: as above
T12 construct: LY75 8mer on the microarray
T12 peptide: TSCSERHF
Method: as §1, §2

LSCYKVFH = biological target: T13, LSCYKVFH; test: as above
T13 construct: LY75 8mer on the microarray
T13 peptide: LSCYKVFH
Method: as §1, §2

RELTYSNF = biological target: T14, RELTYSNF; test: as above
T14 construct: LY75 8mer on the microarray
T14 peptide: RELTYSNF
Method: as §1, §2

YLNNLYKI = biological target: T15, YLNNLYKI; test: as above
T15 construct: LY75 8mer on the microarray
T15 peptide: YLNNLYKI
Method: as §1, §2

SERHFVSL = biological target: T16, SERHFVSL; test: as above
T16 construct: LY75 8mer on the microarray
T16 peptide: SERHFVSL
Method: as §1, §2

NGSRWIQY = biological target: T17, NGSRWIQY; test: as above
T17 construct: LY75 8mer on the microarray
T17 peptide: NGSRWIQY
Method: as §1, §2

EFIYLRPF = biological target: T18, EFIYLRPF; test: as above
T18 construct: LY75 8mer on the microarray; aa 773-780 counted from Region 3 (aa761-780)
T18 peptide: EFIYLRPF
Method: as §1, §2

GSRWIQYK = biological target: T19, GSRWIQYK; test: as above
T19 construct: LY75 8mer on the microarray
T19 peptide: GSRWIQYK
Method: as §1, §2

YPWHRFPV = biological target: T20, YPWHRFPV; test: as above
T20 construct: LY75 8mer on the microarray
T20 peptide: YPWHRFPV
Method: as §1, §2

KLSRLTYS = biological target: T21, KLSRLTYS; test: as above
T21 construct: LY75 8mer on the microarray
T21 peptide: KLSRLTYS
Method: as §1, §2

VYFHQHSI = biological target: T22, VYFHQHSI; test: as above
T22 construct: LY75 8mer on the microarray
T22 peptide: VYFHQHSI
Method: as §1, §2

FTSCSERH = biological target: T23, FTSCSERH; test: as above
T23 construct: LY75 8mer on the microarray
T23 peptide: FTSCSERH
Method: as §1, §2

RWIQYKGH = biological target: T24, RWIQYKGH; test: as above
T24 construct: LY75 8mer on the microarray
T24 peptide: RWIQYKGH
Method: as §1, §2

LTYSNFHP = biological target: T25, LTYSNFHP; test: as above
T25 construct: LY75 8mer on the microarray
T25 peptide: LTYSNFHP
Method: as §1, §2

PWRRGWHF = biological target: T26, PWRRGWHF; test: as above
T26 construct: LY75 8mer on the microarray
T26 peptide: PWRRGWHF
Method: as §1, §2

PWHRFPVT = biological target: T27, PWHRFPVT; test: as above
T27 construct: LY75 8mer on the microarray
T27 peptide: PWHRFPVT
Method: as §1, §2

Measured: binding result

B1: LY75_A1 monoclonal antibody (antibody, human IgG1, kappa, V domains shown)
VH: EVQLVESGGGLVKPGGSLRLSCAASGFTYSNAWMSWVRQAPGKGLEWVGRIKSKTDGGTTDYAAPVQGRFTISRDDSKNTLYLQMNSLKTEDTAVYYCTIFGVVSFDYWGQGTLVTVSS
VL: DVQMTQSPSSLSASVGDRVTITCRASQSISDYLSWYQQRPGKAPNLLIYAASNLKTGVPSRFSGSGSGTDFTLTISTLQPEDFATYYCQQSYRSPWTFGQGTKVEIKR
notes: also called LY75A1 antibody; antibody LY75_A1
binds: all assays above
